{
  "source": "the DeepSol protein solubility set",
  "data": [
    {"experiment": "soluble on expression in E. coli; label from the status in PepcDB or PDB records", "values": [
      {"sequence": "MIHSLFLINSSGDIFLEKHWKSVVSRSVCDYFFEAQERATEAENVPPVIPTPHHYLLSVYRHKIFFVAVIQTEVPPLFVIEFLHRVVDTFQDYFGVCSEPVIKDNVVVVYEVLEEMLDNGFPLATESNILKELIKPPTILRTVVNTITGSTNVGDQLPTGQLSVVPWRRTGVKYTNNEAYFDVVEEIDAIIDKSGSTVTAEIQGVIDACVKLTGMPDLTLSFMNPRLLDDVSFHPCVRFKRWESERILSFIPPDGNFRLLAYHVSAQNLVAIPVYVKHSISFRDSSSLGRFEITVGPKQTMGKTIEGVIVTSQMPKGVLNMSLTPSQGTHTFDPVTKMLSWDVGKINPQKLPSLKGTMGLQVGASKPDENPTINLQFKIQQLAISGLKVNRLDMYGEKYKPFKGIKYMTKAGKFQVRT", "soluble on expression in E. coli": "not soluble"},
      {"sequence": "MGSDKIHHHHHHMGEQQLDCALDLMRRLPPQHCDKNLTDLIDLCPHLVDDLLSTIDQPLKIAADRETGKQYLLCDYNRDGDSYRSPWSNTYDPPLEDGQLPSEKRRKMEIEANAAFESYRDLYFEGGVSSVYFWDLDNGGFAGIVLIKKEGDGAKNITGCWDSIHVIEITERARQAHYKLTSTIMLWLQTNKSSSGVMNLGGSLTRQHEMDAPINDQNTHLANMGRMIEDQESKMRLTINEIYFGKTKKVMSDLRSTEKQSELEKQDEIVRELNNAMANRGN", "soluble on expression in E. coli": "not soluble"},
      {"sequence": "MGSDKIHHHHHHMDIKLKDFEGPLDLLLHLVSKYQVDIYEVPITEVIEQYLAYIATLQAMRLEVAGEYMLMASQLMVIKSRRLLPKVVEQIDPEDDPEMDLLDQLEEYRKFKLLSEKLGEQHDERANYFSKPKLDLIYDDVQLAKDKTIIDIFLAFSKVMAEKQASLRQSHATIARDEYKIEDMMDFVRSRFETGPRLELRQLFQESQDVNEMITIFLATLELVKVHEIVLEQTETFGDIYLVRSEDESLS", "soluble on expression in E. coli": "not soluble"},
      {"sequence": "MRKIGLLFITIFCLLACKNNSSRISLEGEIKGLTNDTLYLYGTDALYDRIDTIYAEKGKFSYNLNIDSTVIDTLTTAVLLINGHVEYPVFLDKGNQITIKGNIDDLSYLDINGNEPNTSLSLFMKEQRGLGSASDKMMQEKAETFIRQHNSSLASVYLLDKYFVQTPQPDYIKIKEITEAMTGALLDRPYIENISDYIDQLEKVTVGKSAPYFSLPNEKGEKLSRSAERFRNRYLLLNFWASWCDPQPEANAELKRLNKEYKKNKNFAMLGISLDIDREAWETAIKKDTLSWDQVCDFTGLSSETAKQYAILTLPTNILLSPTGKILARDIQGEALTGKLKELLKTEEKKTGKSIR", "soluble on expression in E. coli": "not soluble"},
      {"sequence": "QRVKRLLSITNDKHDEYLTEMVPLLVEFAKDECHNPFIDKDGNESIPSGVLIFVAKAAQFYMTNAGLTGRSMDTVSYNFATEIPSTILKKLNPYRKMAR", "soluble on expression in E. coli": "soluble"},
      {"sequence": "MSSETFYKTQQDLRKAESHASHAAGGNTPANSNVSAMKVTPNLLIQFGDTAANSTNQSIVDEHTDKAKAIEERKANLPLPDQPPVASDWQSADQRAVNVGSGGVQGSVSGESNTALRDPATAGSSARMSGEELHKETQPTGNVGRQATEGLSDIPGDAKARK", "soluble on expression in E. coli": "not soluble"},
      {"sequence": "MTQTFADQKRKTVETAEFTEDGRYKRKVRSFVLRTGRLSEFQRNMMNDNWGTLGLDYQTEPFDFAKIYGNDNPVVLEIGFGMGKSLVDMAFANPDKNYLGIEVHTPGVGACIAYAVEKGVTNLRVICHDATEILRDSIADGALGGLQLFFPDPWHKAKHHKRRIVQPHFVTQVIQKLGENGFIHMATDWENYAEQMLEVLSANTDLVNTSKNGDYIPRPDFRPLTKFEARGYKLGHGVWDLYFVKK", "soluble on expression in E. coli": "not soluble"},
      {"sequence": "MKDFLRLELPVLPLRNTVVLPHTTTGVDVGRLKSKRAVEEALSADRLLFLVTQKDPEVDDPAPEDLYAVGTLAVVKQAMRLPDGTLQVMVEARSRARLLSYVAAPYLRAVGEAIPEPPLKDPELARVLVNEVQEAFERYLQNHKTLRLDRYQQEAVKSTRDPAILADLVAHHATWTLEEKQTILETPEVEERLKRVLALLLRDLERFELDKKIAARVKEQMDQNQREYYLREQMKAIQKELGGGEDFLTEIEELRERIEKKGMPEPVKEKALKELKRLERMQPGSPEATVSRTYLDWLLEVPWTEADPEVLDISVTKRVLDEDHYGLKEVKERILEYLAVRQLTQGKEVKGHAPILCFVGPPGVGKTSLGKSIARSMNRRFHRISLGGVRDEAEIRGHRRTYIGALPGKIIQGMKQVGVVNPVFLLDEIDKLSSDWRGDPAAALLEVLDPEQNHTFTDHYLDVPYDLSKVFFITTANTLSTIPRPLLDRMEVIEIPGYTLHEKRAIARYFRWPFQVKEAGLEGRLEITDRAIERIVQEYTREAGVRNLDRELSKVARKAAKDYLEKPWEGVRVVDAEDLEAYLGVPKYRPDRAEKEPQVGAAQGLAWTPYGGTLLTIEAVAVPGTGKVNLTGNLGEVMKESDHAVLTYLRVHREEWGLPEGFHKDYDLHIHVPEGATPKDGPSAGITIATALASALTGRPVRMDIAMTGEITLRGRVLPIGGVKEKLLAAHQAGIHRVILPKENAAELKEVPEEILKDLEIHFVEEVGEVLKLLLLPPPPPPAVQPDRPQPGVGA", "soluble on expression in E. coli": "soluble"},
      {"sequence": "MVYNVLLSLPMMIQARWELLALLLGSGLIKQMDEVIFKEIMACASDQDLAARCSSVMLQISSNSDTCDKTAAIIFKGLTSPVAAVRSNVHRSWLCRIITLKNSQKCVETLLKLCKKSIKTTGNCSKILPISFRELPGLTCVDLQWRAILDEEPGDFSAFCYFSVLLSLKNASSQVHIQIPANDEFVLAELRNSGSLDVLKVCSKYKIYPEPLENWILEHFSPEMMEYIDFSMLKTFSAGFSQVFEEKKLEICQEKLEKFYPAEDLGRLNVHVDLSKEKLANETLEQFLQIQHESEEYPSVAGVMENLSKQNIDERLFCQKICLINDIMHEKYSILKEIRREMYTEFIFKIITRIPLRSVVDYVGATLKTEALQNPDFKNQIYQMSCQLLRLDKENARPLSLYHCFIGTCQQQDTTARISEIWAIIRGLKCDVKKRKMTEMLAKVVTSSEIQIDPSLLSDMTICSLGLHPTRFNTESTQLFVASISKLLDFRNESERIMLFQATANTPTLMDLISSILSRPSTDFSISGFQMILYFFTRFHIGSMEFYPYNHLLIITKIINFCHWSIRKFAKEPMILSISVDAICGFLPWSYLSEIALNGLEVENDPVEQLIAQNLKHNRFCVLLAEHDKQDTYLTIEDFEKLPKSEFIVEILRKKDAGNDSLNDLGQKLREITGKSMNFEEKHANLLACGILFEKSVEIMENAEKSKDLGQKWKNQYPPRGFLDNLMESFAATNSCINPEEIQNWWLEKCLGMMEIVRKKIIDFY", "soluble on expression in E. coli": "not soluble"},
      {"sequence": "MWLTKLVLNPASRAARRDLANPYEMHRTLSKAVSRALEEGRERLLWRLEPARGLEPPVVLVQTLTEPDWSVLDEGYAQVFPPKPFHPALKPGQRLRFRLRANPAKRLAATGKRVALKTPAEKVAWLERRLEEGGFRLLEGERGPWVQILQDTFLEVRRKKDGEEAGKLLQVQAVLFEGRLEVVDPERALATLRRGVGPGKALGLGLLSVAP", "soluble on expression in E. coli": "soluble"},
      {"sequence": "MENSSDPRTQSAATASLSEMIATITKTFIIAHVDDSDEHLAQALVYNAGRLAWRMREQGVHTDYKTSLSDVVTDADRAAEEFVSGVLTTLRPEDGIVGEEGATRNSTSGRTWVIDPVDGTYNFVNGSDFWCSALALIEGEPEDPTSVIFGAVHRPAMGYTWFGGPEIPTTCDGQPVAKLENKSTELINFATYLNPPCLQQPEIVTRWLTIAQAFLSWRMMGSGSVELANVADGTIGAYVQHSVKDWDWLPGRALVEGAGGKCIKVESGGVTWSIASNPQATDEVAAMLSR", "soluble on expression in E. coli": "not soluble"},
      {"sequence": "MPIVRWGKTIKQELSEGWSRVIQHELTGKLDGHHGGFHETGDESMSDDLSDQARSTAVKQLKALGLSTYAARTFVALISLGEGTAQDVSEVADVPRTRVYDAADELRDRGLVDVKQSSPRRYWAISTETAGRHFEQEYDHRVTVLTNALDRLASANRSTEQQGVWTVTGRDTVTGRVVDFISSADDEVVYMTAEELLTDEIAESLSTASDRGVTIRLAEMSQSVEAQLERDVPDAQLFESAWEWSDTPAGRLLMIDQQKTLVSVLVGANGGYSLEPSDETAIWGTGQSNSLVVVLKALFAWQLANNRE", "soluble on expression in E. coli": "not soluble"},
      {"sequence": "MGSDKIHHHHHHMEVFMITKRPIYNQQLKCVAFEILSCRNVMLNEELTRQLYDLIYHTDTQLPLFVPFSLKKLLEQFETPINNPIILKLSADEIESVYSLTELQDSLFSIALLINTPQQLAWLNFAEYIGLTEQLMSKSDVTKVVQYSKAKNRKIIAYDLNQHVNFEKCKAMTMDYYCGDFLLNSIAEEGTEIAANKLNVLQLIQELQKEDCDLNEITHIIQADPLLSYQLLKLVNSVGFSSGPSIESIDQAVARLGIINLKKWVMLFSMKNISDKPIEVLESGLIRAHMAEELAKKSSNIFSQSAYTAGLLSILDCLLNKPMPALVEQITLAEEIKDALTNKSGPLGDLLSLVIAYEEGHWEEVTQLNINGIDLSQLYIDSLALVSQGTKIMSN", "soluble on expression in E. coli": "not soluble"},
      {"sequence": "MTKAMTAHDYLPLIEKIRKRISSWTGRFLSYCGRLQLIKSVLMSITNFWSSAFRLPGNCMKEIERLCSAFLWSGPDLKTHNAKIAWSKVCLPMCEGGLGLRPLKEINTVCGLKLIWRLLASQTSLWGQWVQTYLIRRNNFWAIKASSYQGSWMWRKLLTLRDVARSFHKKEIHNGRNTSFWYDHWSSMGTLVDVLGARGCIDLGITTTTNMENVFTTRRSRKHRGDLLVRIEAEIEAAKTRHQPDIEDIDLWKPSTGYKKTFSTRETWKLIRMAEPVCEWAKGVWFPKPHQNLLSLLGWVCTIVFQQGTECKSGTAKLTLLAFSAKTLWKQEITYSSTVTTPIKFGKL", "soluble on expression in E. coli": "not soluble"},
      {"sequence": "MASVTEQFNDIISLYSTKLEHTSLRQDSPEYQGLLLSTIKKLLNLKTAIFDRLALFSTNETIDDVSTASIKFLAVDYYLGLLISRRQSNDSDVAQRQSMKLIYLKKSVESFINFLTLLQDYKLLDPLVGEKLGNFKDRYNPQLSELYAQPKNNKDLSGAQLKRKEKIELFQRNKEISTKLHCLELELKNNDEDHDHDELLRELYLMRLHHFSLDTINNIEQNLFECEMLSNFLK", "soluble on expression in E. coli": "soluble"},
      {"sequence": "MSLGIYMRDDILDIITLTTDFGTNEGYVGAMKGRILNILKKYNKDAKIIDISHEIKPFNIYHGAYVLLTAIPYFPPSVHVAVIDPTVGSERKSIVIETKSGYYLVGPDNGLFTYVAEKLGIKRIIKIDEERYKPSSTFHGRDVYAVVGAEILINNGYDGEELDEMVKIDETKKRVIHIDRFGNIITNIKKDEVTFKYYDTIMIKIRHKNGIEKIIKCKFVKSYFEEKNNFICLINSEGFLEISKFMDNASKLLNVDYLDEIEIEGGSHHHHHH", "soluble on expression in E. coli": "soluble"},
      {"sequence": "MGSDKIHHHHHHASCEKDPDMGKLDDNYLVYTNYDKQANFKDFSTFYLADKILVISDSKEPEYLEGEGAEQILAAYTENMEAKGYQPAADKESADLGIQVSYIASTYYFTGYTQPEWWWGYPGYWGPSYWGNWGGWYYPYAVTYSYSTNSFITEMVNLKADEGEGKKLPVVWTSYLTGFETGSKAINRTLAIEAVNQSFTQSPYLTNK", "soluble on expression in E. coli": "not soluble"},
      {"sequence": "MSLTPMFKTPVVMTIAGSDSGGGAGIAADIKTFAAFGVHGTCAITSVTAQNTTGVLETFDLAPEAVASQIEAVCTDMDVKWAKTGMLASSEIIKEVAKQVKKHNLSLVLDPVMAAEAGGDLLKKEALSVLIKELLPLCKVTTPNASEAGALAGVTVKTHEDAKLAARKIADLGVESVIVTGGHIDATDLLYEPVSGTFTRIPGTFVKGGTHGSGCTYSASMAACLARGDSTETAARKAKTFVEQAILRSVPVGKGVGPVNPLANTLEEKERYLALQDVKEAVSILTYSPDFAKLIPEVGCNIGMAIPCARTYNEIAAVEGRIIRFREKAIPVGYVNFGASQHVARVILAALRENPEMRAAMNVKYSEEILEACREINPGISSFDRAEDPGDASTMEWGTSEAIRKYGGMPEVIYDKGAIGKEPMVRLLGKSASEVAKLAVELARRVKEGHHHHHH", "soluble on expression in E. coli": "soluble"}
    ]}
  ]
}
